In PMC4427200 (Acta Crystallographica Section D: Biological Crystallography, 2015):
Values belong to the molecule of their own block, whether it stands above or below them.

Tests used:
AroD = target: T1, AroD (Salmonella enterica, UniProt P58687); assay: SPR, single binding isotherm fitting
T1 construct: source cited as Light et al., 2013; used as SPR control protein
T1 sequence (P58687 1-252): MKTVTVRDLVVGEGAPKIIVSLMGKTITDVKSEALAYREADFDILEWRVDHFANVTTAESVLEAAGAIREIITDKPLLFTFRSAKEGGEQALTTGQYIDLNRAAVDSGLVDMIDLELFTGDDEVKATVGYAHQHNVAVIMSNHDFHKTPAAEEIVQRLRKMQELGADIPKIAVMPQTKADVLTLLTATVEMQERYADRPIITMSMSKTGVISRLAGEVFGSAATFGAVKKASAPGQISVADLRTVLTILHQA
Text: SPR, single binding isotherm fitting on AroD | each of the proteins selectively responded to its natural ligand, NADH and DQA, respectively

SaBADH [1] = target: T2, SaBADH (Staphylococcus aureus, UniProt A0A0H2X0S3); assay: SPR, immobilized SaBADH; assay type: binding; details: 2 mM ADP, pH 5.0-8.0, 298 K, two-day-old surface
T2 construct: gene betB; pMCSG7 tagged protein (Ni-NTA), E. coli BL21(DE3)/pMAGIC; tetramer/dimer; G234S cloned in p15TV-LIC
T2 sequence (A0A0H2X0S3 1-496): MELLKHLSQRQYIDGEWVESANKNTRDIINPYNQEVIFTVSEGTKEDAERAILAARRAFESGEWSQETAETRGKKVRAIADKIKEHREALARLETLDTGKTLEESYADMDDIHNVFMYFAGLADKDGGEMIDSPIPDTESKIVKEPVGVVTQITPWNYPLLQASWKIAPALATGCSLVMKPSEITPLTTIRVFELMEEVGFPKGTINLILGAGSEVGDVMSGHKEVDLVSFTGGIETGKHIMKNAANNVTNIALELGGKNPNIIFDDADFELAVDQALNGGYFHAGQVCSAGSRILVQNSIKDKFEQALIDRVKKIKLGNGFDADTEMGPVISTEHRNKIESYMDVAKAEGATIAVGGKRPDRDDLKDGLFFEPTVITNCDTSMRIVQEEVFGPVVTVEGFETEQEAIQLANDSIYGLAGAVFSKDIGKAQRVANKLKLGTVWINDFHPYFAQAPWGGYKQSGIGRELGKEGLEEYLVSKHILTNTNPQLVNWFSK

SaBADH [2] = target: T2, SaBADH; assay: SPR, immobilized SaBADH(BME+); assay type: binding
SaBADH [3] = target: T2, SaBADH; assay: NADH absorbance at […] nm; assay type: biochemical; details: substrate inhibition; co-substrate NAD+; 100 mM potassium phosphate pH 8.0, 303 K
[4] = target: Gly234Ser mutant of SaBADH (G234S-SaBADH) (Staphylococcus aureus COL); assay: crystal structure; X-ray structures of apo and NAD-bound forms, with and without BME; sitting-drop vapor diffusion at 295 K; assemblies analysed with PISA
[5] = target: betaine aldehyde dehydrogenase SACOL2628 from Staphylococcus aureus COL (SaBADH), wild type (Staphylococcus aureus COL); assay: dynamic light scattering; SaBADH^BME(−) 10-100 uM in 10 mM Tris-HCl pH 8.3, 0.5 mM TCEP, with 0.5-2.5 M NaCl, 298 K
[6] = target: betaine aldehyde dehydrogenase SACOL2628 from Staphylococcus aureus COL (SaBADH), wild type (Staphylococcus aureus COL); assay: dynamic light scattering; SaBADH^BME(−) 10-100 uM in 10 mM Tris-HCl pH 8.3, 0.5 mM TCEP, no added salt, 298 K
[7] = target: betaine aldehyde dehydrogenase SACOL2628 from Staphylococcus aureus COL (SaBADH), wild type (Staphylococcus aureus COL); assay: crystal structure; X-ray structures of apo and NAD-bound forms, with and without BME; sitting-drop vapor diffusion at 295 K; assemblies analysed with PISA
[8] = target: betaine aldehyde dehydrogenase SACOL2628 from Staphylococcus aureus COL (SaBADH), wild type (Staphylococcus aureus COL); assay: SEC-MALS; SaBADH^BME(+) 2 mg/ml on Superdex 200 10/300 GL in 10 mM Tris-HCl pH 8.3, 500 mM NaCl, 5 mM BME, 295 K
[9] = target: betaine aldehyde dehydrogenase SACOL2628 from Staphylococcus aureus COL (SaBADH), wild type (Staphylococcus aureus COL); assay: dynamic light scattering; SaBADH^BME(−) 10-100 uM in 10 mM Tris-HCl pH 8.3, 0.5 mM TCEP, with 0.5-2.5 M KCl, 298 K
purified protein [10] = substrate: NC(=O)c1ccc[n+]([C@@H]2O[C@H](COP(=O)(O)OP(=O)(O)OC[C@H]3O[C@@H](n4cnc5c(N)ncnc54)[C@H](O)[C@@H]3O)[C@@H](O)[C@H]2O)c1; assay: purified protein; details: co-substrate betaine aldehyde, 100 mM potassium phosphate pH 8.0, 303 K, 30.0 °C, varied: cofactor
purified protein [11] = substrate: NC(=O)c1ccc[n+]([C@@H]2O[C@H](COP(=O)(O)OP(=O)(O)OC[C@H]3O[C@@H](n4cnc5c(N)ncnc54)[C@H](OP(=O)(O)O)[C@@H]3O)[C@@H](O)[C@H]2O)c1; assay: purified protein; details: co-substrate betaine aldehyde, 100 mM potassium phosphate pH 8.0, 303 K, 30.0 °C, varied: cofactor

Molecule: O=C1C[C@@](O)(C(=O)O)C[C@@H](O)[C@@H]1O [3-dehydroquinic acid]
Kd (AroD): 244 µM

Molecule: Nc1ncnc2c1ncn2[C@@H]1O[C@H](COP(=O)(O)OP(=O)(O)O)[C@@H](O)[C@H]1O [ADP]
SPR, immobilized SaBADH (SaBADH [1]): An acidic pH favored the ADP–SaBADH interaction

Molecule: NC(=O)C1=CN([C@@H]2O[C@H](COP(=O)(O)OP(=O)(O)OC[C@H]3O[C@@H](n4cnc5c(N)ncnc54)[C@H](O)[C@@H]3O)[C@@H](O)[C@H]2O)C=CC1 [NADH]
Kd (SaBADH [2]): 4.5 µM

Molecule: NC(=O)c1ccc[n+]([C@@H]2O[C@H](COP(=O)(O)OP(=O)(O)OC[C@H]3O[C@@H](n4cnc5c(N)ncnc54)[C@H](O)[C@@H]3O)[C@@H](O)[C@H]2O)c1 [NAD^+]
Kd (SaBADH [2]): 19.3 µM

Molecule: C[N+](C)(C)CC=O [betaine aldehyde]
Betaine aldehyde (SaBADH [3]): 0.34 ± 0.06 mM

Molecule: Gly234Ser mutant of SaBADH (G234S-SaBADH) (enzyme)
stoichiometry N [4]: 4

stoichiometry N [5]: 4
stoichiometry N [6]: 2
stoichiometry N [7]: 4
stoichiometry N [8]: 4
stoichiometry N [9]: 2
Molecule: betaine aldehyde dehydrogenase SACOL2628 from Staphylococcus aureus COL (SaBADH), wild type (enzyme)

B1: SaBADH (Staphylococcus aureus subsp. aureus COL) (protein)
chain: T2 sequence (A0A0H2X0S3 1-496)
Km (purified protein [10]): 430 ± 30 µM
Km (purified protein [11]): 2260 ± 350 µM
